The target of experiment [1] is T1, BoNT/B light chain (LC), yeast displayed (Clostridium botulinum, UniProt P10844 1-441).
T1 sequence: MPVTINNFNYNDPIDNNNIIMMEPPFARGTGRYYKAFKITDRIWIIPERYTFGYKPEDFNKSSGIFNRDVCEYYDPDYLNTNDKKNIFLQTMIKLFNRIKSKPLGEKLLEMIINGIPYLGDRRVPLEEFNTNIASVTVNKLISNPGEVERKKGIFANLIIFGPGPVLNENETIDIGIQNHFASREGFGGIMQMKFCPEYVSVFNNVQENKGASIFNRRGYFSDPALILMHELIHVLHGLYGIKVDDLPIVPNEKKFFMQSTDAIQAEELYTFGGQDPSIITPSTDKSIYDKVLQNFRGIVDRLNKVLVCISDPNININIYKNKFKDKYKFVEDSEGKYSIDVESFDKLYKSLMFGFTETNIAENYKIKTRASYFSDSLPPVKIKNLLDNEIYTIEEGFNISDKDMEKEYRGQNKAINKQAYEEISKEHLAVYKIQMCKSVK
Nature of the experiment: flow cytometry, mAb staining of yeast-displayed BoNT/B domains.

In experiment [2] the target is T2, BoNT/B binding domain (HC), yeast displayed (Clostridium botulinum, UniProt P10844 858-1291).
T2 sequence: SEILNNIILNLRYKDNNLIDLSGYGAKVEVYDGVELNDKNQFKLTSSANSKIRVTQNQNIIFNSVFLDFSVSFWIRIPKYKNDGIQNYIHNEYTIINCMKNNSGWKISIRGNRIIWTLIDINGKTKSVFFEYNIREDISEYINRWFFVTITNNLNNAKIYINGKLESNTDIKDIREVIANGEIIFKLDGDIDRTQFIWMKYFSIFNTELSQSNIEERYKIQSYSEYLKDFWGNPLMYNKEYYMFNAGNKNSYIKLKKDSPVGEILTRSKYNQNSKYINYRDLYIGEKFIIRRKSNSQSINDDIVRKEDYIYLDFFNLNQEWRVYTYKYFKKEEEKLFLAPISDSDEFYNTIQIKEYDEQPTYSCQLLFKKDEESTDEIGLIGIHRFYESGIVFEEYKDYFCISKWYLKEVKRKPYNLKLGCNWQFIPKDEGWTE
The experiment is described as above.

The target of experiment [3] is T3, BoNT/B translocation domain (HN), yeast displayed (Clostridium botulinum, UniProt P10844 442-857).
T3 sequence: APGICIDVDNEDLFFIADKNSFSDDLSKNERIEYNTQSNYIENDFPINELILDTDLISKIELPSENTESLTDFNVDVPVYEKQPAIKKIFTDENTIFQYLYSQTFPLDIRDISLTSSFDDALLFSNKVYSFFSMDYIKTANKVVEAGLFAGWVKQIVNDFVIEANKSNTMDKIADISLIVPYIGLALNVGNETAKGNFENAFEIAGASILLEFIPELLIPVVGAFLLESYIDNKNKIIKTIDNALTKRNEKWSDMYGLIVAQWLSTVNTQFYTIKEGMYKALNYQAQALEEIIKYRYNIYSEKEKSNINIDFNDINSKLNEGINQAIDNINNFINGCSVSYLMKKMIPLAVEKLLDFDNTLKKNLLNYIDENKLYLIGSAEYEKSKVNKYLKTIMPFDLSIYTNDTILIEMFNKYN
Nature of the experiment: IgG/Fab on yeast-displayed toxin domain, flow cytometry.

Experiment [4] has as its target T2, BoNT/B binding domain (HC), yeast …. The experiment is described as follows: soluble scFv or IgG on yeast-displayed BoNT/B domains.

B1: 1B18 IgG (antibody, V domains shown)
VH: EVQLVQSGGGLVQPGGSRRLSCAASGFYFNAYWMTWVRQAPGKGLEWVANINLDGTEIYYLDSVKGRFTVSRDNVKNSVFLQMSSLRVEDTAVYFCARLEWGGRNGWVSPWGQGTLVTVSS
VL: DVVMTQSPSSVSASVGDRVTITCRASQSISSYLNWYQQRPGKAPKLLIFAASSLQSAVPSRFSGSGSGTDFTLTISSLQPEDFATYYCQQSYSTPPTFGQGTKVEIKR
In the case of B1, the binding result in experiment [1] is reported as “no binding”; in experiment [2], “no binding”; in experiment [3], “binds”.

B2: 2B30 scFv (scFv)
scFv: EVQLVESGGGVVQPGRSLRLSCAASGFTFRRNAIHWVRQAPGKGLEWVAVISYDGVNKYYAASVKGRFAISRDNAKNTLFLQMNSLRPEDSAIYYCARDVSEYGDYVGHFDYWGQGTLVTVSSGGGGSGGGGSGGGGSSYELMQLPSASGTPGQRVSISCSGSSSNIGSNPVNWYQQLPGTAPKLLIYSNNHRPSGVPDRFSGSKSGTSASLAISGLQSEDEADYYCAAWDGSLNGHVVFGGGTKLTVL
B2: in experiment [4], the binding result is listed as “binds”.
